Test results as given in paper PMC13100509, “A milestone in C4 carbon concentration mechanism evolution: structural remodeling of NADP-malic enzyme in Poaceae” (Molecular Biology and Evolution, 2026).
Where “and” joins values, the source holds several entries; their conditions need not be identical. Identical values can stand only once.

How the values were obtained:
[1] = molecular target: C4 + 15 variant of maize C4-NADP-ME (maize (Zea mays)) (UniProt P16243); test: native gel or EMSA; native PAGE (6% or 7%) of purified recombinant proteins, 100 V, 4 °C; Coomassie staining or in-gel NADP-ME activity assay; oligomeric state from mobility against native markers
[2] = molecular target: nonC4R171T mutant of maize nonC4-NADP-ME (maize (Zea mays)); test: as above
[3] = molecular target: nonC4N172D mutant of maize nonC4-NADP-ME (maize (Zea mays)); test: as above
[4] = molecular target: plastidic nonC4-NADP-ME from maize extracts (maize (endogenous in maize etiolated leaves and roots)); test: native gel or EMSA; native PAGE (7%) of maize extracts of etiolated leaves and roots; in-gel NADP-ME activity assay, active bands excised and identified by mass spectrometry; mobility compared with the recombinant proteins
[5] = molecular target: maize Cyt2-NADP-ME, recombinant wild type (maize (Zea mays)); test: native gel or EMSA; native PAGE (6% or 7%) of purified recombinant proteins, 100 V, 4 °C; Coomassie staining or in-gel NADP-ME activity assay; oligomeric state from mobility against native markers
[6] = molecular target: nonC4Δ15 variant of maize nonC4-NADP-ME (maize (Zea mays)); test: as above
[7] = molecular target: the molecule itself; test: as above
purified protein = substrate: O=C(O)C[C@H](O)C(=O)O; test: purified protein; format: biochemical, Zea mays; details: pH 8.0, 25 °C, 0.5 mM NADP, 10 mM MgCl2

“C4 + 15 variant of maize C4-NADP-ME (from UniProt P16243 63-636) (enzyme)” was tested, and the stoichiometry N [1] was 4.

In the case of “nonC4R171T mutant of maize nonC4-NADP-ME (enzyme)”, the stoichiometry N [2] is reported as 2 and 4.

“nonC4N172D mutant of maize nonC4-NADP-ME (enzyme)” showed a stoichiometry N [3] of 4.

In the case of “plastidic nonC4-NADP-ME from maize extracts (enzyme)”, the stoichiometry N [4] is reported as 2.

“maize Cyt2-NADP-ME, recombinant wild type (enzyme)” showed a stoichiometry N [5] of 4.

With “nonC4Δ15 variant of maize nonC4-NADP-ME (enzyme)” the stoichiometry N [6] was 2.

B1: C4N15GR variant of maize C4-NADP-ME (enzyme)
chain: AAGVVVEDHYGEDSASEELPVMPWATSVASGYTLLRDPHHNKGLAFTEEERDGHYLRGLLPPAVLSQELQIKKFMNTLRQYQTPLQRYIAMMNLQETDERLFYKLLIDNVVELLPFVYTPTVGEACQKYGSIFRRPQGLYVSLKDKGKVLEVLRNWPHRNIQVICVTDGERILGLGDLGCQGMGIPVGKLALYTALGGVDPSVCLPITIDVGTNNEKLLNDEFYIGLRQKRATGEEYDELIEEFMSAVKQFYGEKVLIQFEDFANHNAFDLLEKYSKSHLVFNDDIQGTASVVLAGLLAALKMVGGTLAEQTYLFLGAGEAGTGIAELIALEISKQTNAPIEECRKKVWLVDSKGLIVDSRKGSLQPFKKPWAHEHEPLKTLYDAVQSIKPTVLIGTSGVGRTFTKEIIEAMSSFNERPIIFSLSNPTSHSECTAEQAYTWSQGRSIFASGSPFAPVEYEGKTFVPGQSNNAYIFPGLGLGLVISGAVRVHEDMLLAASKALADQATQDNFEKGSIFPPFTSIRKISAHIAAAVAAKAYELGLATRLPPPSDLVKYAENCMYTPVYRNYR
For B1, the “stoichiometry N” value [7] was 2.

B2: C4NnC4GR variant of maize C4-NADP-ME (enzyme)
chain: AAEMEQEEAEVAAAAAGVVVEDHYGEDSASEELPVMPWATSVASGYTLLRDPHHNKGLAFTEEERDGHYLRGLLPPAVLSQELQIKKFMNTLRQYQTPLQRYIAMMNLQETDERLFYKLLIDNVVELLPFVYTPTVGEACQKYGSIFRRPQGLYVSLKDKGKVLEVLRNWPHRNIQVICVTDGERILGLGDLGCQGMGIPVGKLALYTALGGVDPSVCLPITIDVGTNNEKLLNDEFYIGLRQKRATGEEYDELIEEFMSAVKQFYGEKVLIQFEDFANHNAFDLLEKYSKSHLVFNDDIQGTASVVLAGLLAALKMVGGTLAEQTYLFLGAGEAGTGIAELIALEISKQTNAPIEECRKKVWLVDSKGLIVDSRKGSLQPFKKPWAHEHEPLKTLYDAVQSIKPTVLIGTSGVGRTFTKEIIEAMSSFNERPIIFSLSNPTSHSECTAEQAYTWSQGRSIFASGSPFAPVEYEGKTFVPGQSNNAYIFPGLGLGLVISGAVRVHEDMLLAASKALADQATQDNFEKGSIFPPFTSIRKISAHIAAAVAAKAYELGLATRLPPPSDLVKYAENCMYTPVYRNYR
For B2, the “stoichiometry N” value [7] was 2.

B3: C4-NADP-ME (Zea mays) (protein)
chain: AMVSNAETETEKEQEEAAAASEELPVMPWATSVASGYTLLRDPHHNKGLAFTEEERDGHYLRGLLPPAVLSQELQIKKFMNTLRQYQTPLQRYIAMMNLQETDERLFYKLLIDNVVELLPFVYTPTVGEACQKYGSIFGRPQGLYVSLKDKGKVLEVLRNWPHRNIQVICVTDGERILGLGDLGCQGMGIPVGKLALYTALGGVDPSVCLPITIDVGTNNEFLLNDEFYIGLRQKRATGEEYDELIEEFMSAVKQFYGEKVLIQFEDFANHNAFDLLEKYSKSHLVFNDDIQGTASVVLAGLLAALKMVGGTLAEQTYLFLGAGEAGTGIAELIALEISKQTNAPIEECRKKVWLVDSKGLIVDSRKGSLQPFKKPWAHEHEPLKTLYDAVQSIKPTVLIGTSGVGRTFTKEIIEAMSSFNERPIIFSLSNPTSHSECTAEQAYTWSQGRSIFASGSPFAPVEYEGKTFVPGQSNNAYIFPGLGLGLVISGAVRVHEDMLLAASKALADQATQDNFEKGSIFPPFTSIRKISAHIAAAVAGKAYELGLATRLPPPSDLVKYAENCMYTPVYRNYR
notes: mature protein without transit peptide, E. coli, pET16b His-tag (Factor Xa site); homotetramer about 250 kDa
With B3 the Km (purified protein) was 170 ± 20 µM and the kcat (purified protein) was 67.5 ± 1.4 s⁻¹.

B4: C4-NADP-ME (Zea mays; G200R) (protein)
chain: AMVSNAETETEKEQEEAAAASEELPVMPWATSVASGYTLLRDPHHNKGLAFTEEERDGHYLRGLLPPAVLSQELQIKKFMNTLRQYQTPLQRYIAMMNLQETDERLFYKLLIDNVVELLPFVYTPTVGEACQKYGSIFRRPQGLYVSLKDKGKVLEVLRNWPHRNIQVICVTDGERILGLGDLGCQGMGIPVGKLALYTALGGVDPSVCLPITIDVGTNNEFLLNDEFYIGLRQKRATGEEYDELIEEFMSAVKQFYGEKVLIQFEDFANHNAFDLLEKYSKSHLVFNDDIQGTASVVLAGLLAALKMVGGTLAEQTYLFLGAGEAGTGIAELIALEISKQTNAPIEECRKKVWLVDSKGLIVDSRKGSLQPFKKPWAHEHEPLKTLYDAVQSIKPTVLIGTSGVGRTFTKEIIEAMSSFNERPIIFSLSNPTSHSECTAEQAYTWSQGRSIFASGSPFAPVEYEGKTFVPGQSNNAYIFPGLGLGLVISGAVRVHEDMLLAASKALADQATQDNFEKGSIFPPFTSIRKISAHIAAAVAGKAYELGLATRLPPPSDLVKYAENCMYTPVYRNYR
notes: as for B3
Work on B4 yielded a Km (purified protein) of 2450 ± 450 µM and a kcat (purified protein) of 21.6 ± 0.8 s⁻¹.

B5: C4T163R mutant of maize C4-NADP-ME (enzyme, maize (Zea mays), UniProt P16243 63-636, looked up)
chain: MVSNAETETEKEQEEAAAASEELPVMPWATSVASGYTLLRDPHHNKGLAFTEEERDGHYLRGLLPPAVLSQELQIKKFMNTLRQYQTPLQRYIAMMNLQERDERLFYKLLIDNVVELLPFVYTPTVGEACQKYGSIFGRPQGLYVSLKDKGKVLEVLRNWPHRNIQVICVTDGERILGLGDLGCQGMGIPVGKLALYTALGGVDPSVCLPITIDVGTNNEFLLNDEFYIGLRQKRATGEEYDELIEEFMSAVKQFYGEKVLIQFEDFANHNAFDLLEKYSKSHLVFNDDIQGTASVVLAGLLAALKMVGGTLAEQTYLFLGAGEAGTGIAELIALEISKQTNAPIEECRKKVWLVDSKGLIVDSRKGSLQPFKKPWAHEHEPLKTLYDAVQSIKPTVLIGTSGVGRTFTKEIIEAMSSFNERPIIFSLSNPTSHSECTAEQAYTWSQGRSIFASGSPFAPVEYEGKTFVPGQSNNAYIFPGLGLGLVISGAVRVHEDMLLAASKALADQATQDNFEKGSIFPPFTSIRKISAHIAAAVAGKAYELGLATRLPPPSDLVKYAENCMYTPVYRNYR
notes: C4-NADP-malic enzyme (ZmC4-NADP-ME), plastidic C4 isoform of maize; source: E. coli Rosetta2 (DE3) or ArcticExpress (DE3), purified (Ni-NTA)
With B5 the “stoichiometry N” value [7] was 2 and 4.

B6: C4D164N mutant of maize C4-NADP-ME (enzyme, maize (Zea mays), UniProt P16243 63-636, looked up)
chain: MVSNAETETEKEQEEAAAASEELPVMPWATSVASGYTLLRDPHHNKGLAFTEEERDGHYLRGLLPPAVLSQELQIKKFMNTLRQYQTPLQRYIAMMNLQETNERLFYKLLIDNVVELLPFVYTPTVGEACQKYGSIFGRPQGLYVSLKDKGKVLEVLRNWPHRNIQVICVTDGERILGLGDLGCQGMGIPVGKLALYTALGGVDPSVCLPITIDVGTNNEFLLNDEFYIGLRQKRATGEEYDELIEEFMSAVKQFYGEKVLIQFEDFANHNAFDLLEKYSKSHLVFNDDIQGTASVVLAGLLAALKMVGGTLAEQTYLFLGAGEAGTGIAELIALEISKQTNAPIEECRKKVWLVDSKGLIVDSRKGSLQPFKKPWAHEHEPLKTLYDAVQSIKPTVLIGTSGVGRTFTKEIIEAMSSFNERPIIFSLSNPTSHSECTAEQAYTWSQGRSIFASGSPFAPVEYEGKTFVPGQSNNAYIFPGLGLGLVISGAVRVHEDMLLAASKALADQATQDNFEKGSIFPPFTSIRKISAHIAAAVAGKAYELGLATRLPPPSDLVKYAENCMYTPVYRNYR
notes: as for B5
In the case of B6, the “stoichiometry N” value [7] is reported as 2 and 4.

B7: C4Y632F mutant of maize C4-NADP-ME (enzyme, maize (Zea mays), UniProt P16243 63-636, looked up)
chain: MVSNAETETEKEQEEAAAASEELPVMPWATSVASGYTLLRDPHHNKGLAFTEEERDGHYLRGLLPPAVLSQELQIKKFMNTLRQYQTPLQRYIAMMNLQETDERLFYKLLIDNVVELLPFVYTPTVGEACQKYGSIFGRPQGLYVSLKDKGKVLEVLRNWPHRNIQVICVTDGERILGLGDLGCQGMGIPVGKLALYTALGGVDPSVCLPITIDVGTNNEFLLNDEFYIGLRQKRATGEEYDELIEEFMSAVKQFYGEKVLIQFEDFANHNAFDLLEKYSKSHLVFNDDIQGTASVVLAGLLAALKMVGGTLAEQTYLFLGAGEAGTGIAELIALEISKQTNAPIEECRKKVWLVDSKGLIVDSRKGSLQPFKKPWAHEHEPLKTLYDAVQSIKPTVLIGTSGVGRTFTKEIIEAMSSFNERPIIFSLSNPTSHSECTAEQAYTWSQGRSIFASGSPFAPVEYEGKTFVPGQSNNAYIFPGLGLGLVISGAVRVHEDMLLAASKALADQATQDNFEKGSIFPPFTSIRKISAHIAAAVAGKAYELGLATRLPPPSDLVKYAENCMYTPVFRNYR
notes: as for B5
B7: binds [7].

B8: C4G200R mutant of maize C4-NADP-ME (enzyme, maize (Zea mays), UniProt P16243 63-636, looked up)
chain: MVSNAETETEKEQEEAAAASEELPVMPWATSVASGYTLLRDPHHNKGLAFTEEERDGHYLRGLLPPAVLSQELQIKKFMNTLRQYQTPLQRYIAMMNLQETDERLFYKLLIDNVVELLPFVYTPTVGEACQKYGSIFRRPQGLYVSLKDKGKVLEVLRNWPHRNIQVICVTDGERILGLGDLGCQGMGIPVGKLALYTALGGVDPSVCLPITIDVGTNNEFLLNDEFYIGLRQKRATGEEYDELIEEFMSAVKQFYGEKVLIQFEDFANHNAFDLLEKYSKSHLVFNDDIQGTASVVLAGLLAALKMVGGTLAEQTYLFLGAGEAGTGIAELIALEISKQTNAPIEECRKKVWLVDSKGLIVDSRKGSLQPFKKPWAHEHEPLKTLYDAVQSIKPTVLIGTSGVGRTFTKEIIEAMSSFNERPIIFSLSNPTSHSECTAEQAYTWSQGRSIFASGSPFAPVEYEGKTFVPGQSNNAYIFPGLGLGLVISGAVRVHEDMLLAASKALADQATQDNFEKGSIFPPFTSIRKISAHIAAAVAGKAYELGLATRLPPPSDLVKYAENCMYTPVYRNYR
notes: C4-NADP-malic enzyme (ZmC4-NADP-ME), plastidic C4 isoform of maize; also called C4-NADP-ME-G200R; source: E. coli Rosetta2 (DE3) or ArcticExpress (DE3), purified (Ni-NTA)
With B8 the “stoichiometry N” value [7] was 2.
